Laboratory results from the RNAGym collection of RNA variant scans (doi:10.1073/pnas.2313332121).

B1: TPR t1 (parent)
chain: GACCAAUCUGCCCUCAGAGCUCGAGAACAUCUUCGGAUGCAGAGGAGGCAGGCUUCGGUGGCGCGAUAGCGCCAACGUCCUCAACCUCCAAUGCAUCCCACCACAUGAUGAUGCCUGAAGAGCCUUGGUUUUUUG

Variants of: B1
Assay: polymerase ribozyme fitness, log enrichment relative to wild type (log ratio); higher = more active; in vitro selection for triplet polymerase activity
Procedure, shortened: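 Each subunit of a heterodimeric triplet polymerase ribozyme was represented by a PCR-built, transcribed mutant library that underwent triplicate single-round in vitro selection with frozen incubation at −7 °C. Extended constructs were recovered by gel excision, streptavidin-bead capture and RT-PCR, and Illumina sequencing of input and output libraries kept genotypes with ≥10 input reads and ≥1 read per output. Fitness is the logarithm of genotype enrichment relative to wild-type enrichment, from inverse-variance-weighted replicate averages, with a logarithm base of 2.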

Variant | polymerase ribozyme fitness (log ratio)
C31U U38C | -5.6
U30G C34G G35C A41U C53U C76U C124G | -8.38
U30C C56G G60U A84C | -3.79
C31A C115A | -4.37
C31A A46U C72A | -5.82
A29U G44U A111G C124G | -3.58
U30C G63A C124G | -3.09
U32G A43U G69U A100C U109C G117U U130A | -7.2
C31G G48U C72U C86G A100C G120C | -7.02
U32C G48A G52U C114A | -4.17
U32A A50G C85U U87A | -4.8
U32C G48U C56A G71U | -3.98
U30A C73U | -5.38
U32G G122A | -7.09
U32C U78A A84G G122A | -2
U32G G35A C98A C99U U109A | -6.04
C31G A37U G71A C76U U78G A105C G110C | -6.15
A29U G44A G110A U125A | -3.17
C31U A37U C49G A84U C104U G113U U133G | -6.55
C31U G60A G61A C123G | -6.05
U30A A95G A121U | -3.78
U32C G48U | -1.13
C31A U54A C89A A121U | -7.04
C31U A46G C49A G60A A105C G110A | -5.83

Variant | polymerase ribozyme fitness (log ratio)
C31G G36U C49U U112G | -6.99
C31U C53G | -3.58
A29U G61A G127C | -3.2
U32C C72G | -0.273
U32C C72A | 0.0616
C31U G61A C123G | -3.22
A29U C76A | -1.91
C31U G39C G44U C85G G110C | -6.47
U32C A37U U38A G48U U96G | -1.88
U32C G36A A83C | -3.09
U32A G58C C94U | -3.96
C31A G120C | -4.32
U32G G60A | -7.06
U30C C115A | -2.84
U32G A68U C70U C80A C101U A111U U126G | -8.12
C31G C80G A100U C101G A103U G120C | -7.23
A29U G45C C115A U133A | -3.42
A29U G60A U78C C102A U112C | -3.58
A29U G52A | -1.8
U32A U112A | -2.37
C31U A111G | -5.05
C31U C104U | -4.18
C31U G51A C73U U106A | -3.91
U32C G42A C56U C115U | -1.93

Variant | polymerase ribozyme fitness (log ratio)
U32C U78C A100C | -2.28
U32C C124G G135U | 0.917
C31A C73A | -5.35
C31G A50U G60C G110C | -6.92
U32C C102G G113A | -7.53
A29U G45U G120A G128U | -3.92
U32A C34A C64U C86G C114A U133C | -5.96
U30A C72G | -6.04
U30C A37C C73G U96A C115U | -5.56
C31U G60A G107A | -1.03
U32C G47A G51A | -4.87
U32C G47U G48U G113C | -3.38
C31U C49U C76G U81G U96A C104U A108U C124G U130C | -5.23
U32A G58A C94A | -5.83
U30A G71U | -4.91
U32G C70A G117A | -5.24
A29U U87G A90C | -3.17
U32A G44A G63C U87C | -4.85
U32A G45A A75U C88U U96C | -5.82
U30G C56G U106A U125A | -2.32
U33A C97U | -5.53
C31U G63U | -3.29
C31U G63C | -5.08
U30G C34G C40U C73U A91C C114U | -7.29

Variant | polymerase ribozyme fitness (log ratio)
U32C G36A G60U | -2.12
U32A C114G | -4.17
C31G G69U A91G G120A U129A | -6.61
U30C G61A | -2.02
U32A G48C | -5.23
A29U G44U | -3.06
U32G G48U C72G C102U G120C | -7.94
U30A C56A C82A U87A C114G G122A | -6.34
A29U U96G U130C | -2.74
U30C C73U | -2.48
C31G C34U U109G G110C | -6.14
C31G G71U C94G A121G U132C | -7.12
U33A C97A C123G | -4.21
A29U G69U U116C G117C | -1.83
C31U U78A A90G | -3.97
A29U G47C C85U C123U | -4.09
U30G G60C C124U | -5.4
U30G G69U U78G | -3.84
A29U G45C G61A A111G C124G | -3.05
U32C G57U G110A | -2
U30C C56G C70G U109A | -5.1
U32C C34U G39C | -5.23
U32C C104U | 0.382
U33A A37U U55C G63U A100C | -7.2

Variant | polymerase ribozyme fitness (log ratio)
A29U C94A | -1.79
C31A U96G A121G | -4.67
C31G G42C A111U | -6.49
U32C A50G A118U U131G | -1.27
C31A U54C G60U A121C | -5.42
U32C U109G | -4.99
U32C G42U A43U U87C C94A C101U C102U | -5.8
U32C U92A U96C U132A | -2.97
A29U G69C U81G U87G | -3.43
U32G G69U | -4.52
C31U G47U C73A U112C G120C | -5.43
U32A G117A | -5.64
C31G G61U | -6.02
U30A A118U | -5.54
U30G C70G C89A A111G | -7.35
C31G U38G G51U G52C C94G G120U | -6.47
U32C G35U A108G A121G | -7.39
U33A C49U C73U | -5.84
A29U G60C | -2.06
C31U U32A G47C G61C G63A C115U | -7.14
A29U U112A | -0.754
A29U U112G | -0.993
U32C G47A | -1.18
C31G C53A G107C | -1.38

Variant | polymerase ribozyme fitness (log ratio)
U32C U81A A90G U112A G113A | -1.38
C31G G58U G61A C62G A83U U109A C124U | -6.38
C31U G61A | -3.81
C31U G61U | -4.59
U33A C62U | -5.03
U32C C56A | -1.29
C31G C72G | -6.27
A29U G42U G52A U109G | -2.63
U32C G42C U54G C94A | -2.1
C31U G71U | -4.09
U30C G71A | -2.58
U30A G52U G60A | -4.07
U32C U106G U112G | -0.955
A29U G39A G117A | -2.71
C31U U112A | -3.16
U30G G69C A108C | -0.59
U32C C49G G52C U96C | -1.52
U32C G36A C64A A111G | -5.64
U32G A50G G69U C88G A121C | -3.17
U32G G57C C76U C82G C85U C114G | -7.16
U32C C40G G45A G47A U54A G61U C88G G110C A111G G117A U125A | -7.2
A29U G113C | -2.87
C31U A68U C114A G117C C124A | -5.73
U32C G47U G48U C104G G117U G127C | -6.32

Variant | polymerase ribozyme fitness (log ratio)
U30A U106A C124G | -2.11
U33A C86G C114U | -4.98
C31G C53G A90U G113A | -6.88
U32G G35U C40U C86U A121U | -5.02
U30C A41G U78A A91G A108G | -2.61
A29U C114U G120C C123U G128C | -4.45
U30G G69U G120A U126A U131G | -4.39
C31G A41C G58C C62U | -8.8
U32C C98A U106A | -6.32
C31U U38A A68C C72U C76G U112A G117C | -6.6
A29U U59G U78G G120U G128C U134A | -2.27
U32A C56G G60C C62A A121C | -6.89
U30C A43U C56U G58U U112G | -6.19
A29U U54A G71C | -1.61
A29U G117A | -3.25
A29U G47A C62U C82U G117C | -5.79
A29U U112A U126G | -2.25
A29U G52C C73G U132C G135U | -3.19
C31A G45C C49U G69U C82U G107A | -5.05
U30C A43U | -4.23
U32C A46U | -1.51
U32C C49G C73G C88G A95C | -5.8
A29U G39U A74U A91U U132A | -4.44
